This data set concerns D11-CD8stk-IL2Rg_A5-Hinge-IL2Rb.
D11-CD8stk-IL2Rg_A5-Hinge-IL2Rb, sequence (chain, as listed by the source, chain 1 of 2): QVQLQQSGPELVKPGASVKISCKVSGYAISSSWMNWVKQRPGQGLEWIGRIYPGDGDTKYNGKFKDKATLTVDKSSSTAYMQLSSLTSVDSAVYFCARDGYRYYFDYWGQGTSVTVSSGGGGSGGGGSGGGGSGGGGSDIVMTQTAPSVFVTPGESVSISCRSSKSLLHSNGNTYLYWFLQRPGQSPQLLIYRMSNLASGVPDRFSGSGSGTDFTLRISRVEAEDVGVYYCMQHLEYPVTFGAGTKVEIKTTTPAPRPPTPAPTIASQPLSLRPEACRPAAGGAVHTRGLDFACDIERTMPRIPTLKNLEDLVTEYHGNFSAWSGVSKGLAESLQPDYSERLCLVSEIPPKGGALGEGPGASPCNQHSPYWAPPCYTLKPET
D11-CD8stk-IL2Rg_A5-Hinge-IL2Rb, sequence (chain, as listed by the source, chain 2 of 2): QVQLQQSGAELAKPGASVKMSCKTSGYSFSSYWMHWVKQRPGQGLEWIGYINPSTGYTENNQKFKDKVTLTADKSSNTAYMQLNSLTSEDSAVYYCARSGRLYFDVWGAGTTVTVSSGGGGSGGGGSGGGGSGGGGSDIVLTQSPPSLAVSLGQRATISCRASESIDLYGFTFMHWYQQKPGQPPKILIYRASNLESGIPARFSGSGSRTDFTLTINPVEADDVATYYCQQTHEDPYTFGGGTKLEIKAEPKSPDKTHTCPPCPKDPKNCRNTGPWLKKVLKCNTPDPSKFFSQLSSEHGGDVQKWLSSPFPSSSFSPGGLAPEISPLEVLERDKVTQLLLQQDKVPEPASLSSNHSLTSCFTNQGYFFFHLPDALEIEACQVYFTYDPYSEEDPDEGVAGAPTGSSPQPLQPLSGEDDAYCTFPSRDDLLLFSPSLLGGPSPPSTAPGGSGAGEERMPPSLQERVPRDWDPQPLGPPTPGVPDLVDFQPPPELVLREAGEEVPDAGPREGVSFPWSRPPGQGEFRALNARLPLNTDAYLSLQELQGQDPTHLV

As to prostate-specific antigen (PSA), the “phosphorylation of Y694 of STAT5 (phosphoflow)” value is recorded as “In the cells expressing the PSA CCR, the presence of PSA lead to increasing STAT5 phosphorylation with time”.

The values are drawn from US20220289820.
